Blank lines part the entries; values can stand above or below the molecule they belong to.
Key:
Experiment in all cases: native gel or EMSA
[1] = target: KaiB3 (recombinant, GST-tag removed) (Synechocystis sp. PCC 6803)
[2] = target: KaiA3-His6 (Synechocystis sp. PCC 6803)
[3] = target: Strep-KaiC3 (Synechocystis sp. PCC 6803)
[4] = target: the molecule itself

stoichiometry N [1]: 4
Molecule: KaiB3 (recombinant, GST-tag removed) (natural protein)

stoichiometry N [2]: > 2
Molecule: KaiA3-His6 (natural protein)

stoichiometry N [3]: 6
Molecule: Strep-KaiC3 (natural protein)

B1: Synechococcus KaiA (recombinant, GST-tag removed) (natural protein, Synechococcus elongatus PCC 7942, UniProt Q79PF6 1-284, looked up)
chain: MLSQIAICIWVESTAILQDCQRALSADRYQLQVCESGEMLLEYAQTHRDQIDCLILVAANPSFRAVVQQLCFEGVVVPAIVVGDRDSEDPDEPAKEQLYHSAELHLGIHQLEQLPYQVDAALAEFLRLAPVETMADHIMLMGANHDPELSSQQRDLAQRLQERLGYLGVYYKRDPDRFLRNLPAYESQKLHQAMQTSYREIVLSYFSPNSNLNQSIDNFVNMAFFADVPVTKVVEIHMELMDEFAKKLRVEGRSEDILLDYRLTLIDVIAHLCEMYRRSIPRET
stoichiometry N [4]: 2

Source: doi:10.1101/2021.07.20.453058 (bioRxiv, 2021)
